Data on 1 sequence can be found in patent US12072338B2, “Pharmaceutical peptides for the treatment of inflammatory diseases” (PROTAGONISTS LTD., priority 2007, dated 2024).

Bounds are passed on as bounds.

One assay deals with T1, GRO-β (Homo sapiens, UniProt P19875).
T1 construct: purchased 300-39
T1 sequence (P19875 35-107): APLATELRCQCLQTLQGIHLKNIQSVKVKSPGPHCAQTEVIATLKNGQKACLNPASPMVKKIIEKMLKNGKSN
As to the kind of experiment: Micro-array analysis of chemokine binding peptides: GRO-β. The protocol:
(§1) (1) Printing: Chemokine (CK) solution (in water) was serially diluted with Print Reagent (GenTel BioSurfaces USA) to final concentrations of 50 μg and 25 μg/ml. BSA/BSA-Biotin control solutions (in water) were diluted with Print Reagent to 100 μg/ml. Amplified stock of M13 phage control (M13KEgIII Cloning Vector, New England Biolabs, Cat.No.E8101S) was stored in Tris Buffered Saline (TBS; pH7.5, 4° C.) and diluted with Print Reagent to the working titre (10^8 pfu/μl). An automated spotting robot (16 pin print tool, 0.4 mm head; BioRobotics, UK) was used to print the CK/BSA control/M13 control, 5 repeats per sample (CK 25 μg/ml and 50 μg/ml; BSA 100 μg/ml; M13 20 μl), on PATH Protein Microarray Slides (GenTel, Prod.No. 2-1005/-1025) at […], and 50-70% relative humidity. Printed micro-array slides were stored at Room Temperature (RT) or 4° C. for at least 24 h before use.
(§2) (2) Blocking: Block Buffer (500 μl/partition; PATHblock, GenTel, Prod.No. 2-1014) was applied to the slide for 1 hour at room temp (RT). After removal of Block Buffer, the slide was air dried for 25 minutes;
(§3) (3) Phage Presented Peptide Binding: Amplified recombinant phage stock was stored in TBS and diluted with Wash Buffer to working titer (10^7 pfu/μl). Recombinant phage suspension (300 μl) was applied per partition and incubated at RT for 1 hour with gentle agitation.
(§4) (4) First Washing: The slides were washed twice with Wash Buffer 300 μl/partition).
(§5) (5) Primary Antibody (Ab) Labeling: The slides were incubated with the Primary Ab (1 mg/ml diluted ×2500 (Wash Reagent), 300 μl; Mouse Anti-M13 monoclonal Ab; Amersham Biosciences, UK; Product Code 27-9420-01) for 45 minutes at RT.
(§6) (6) Second Washing: The slides were washed twice with Wash Buffer (300 μl/partition).
(§7) (7) Secondary Ab Labeling: The slides were incubated with Secondary Ab (1.5 mg/ml diluted ×5000 (Wash Reagent), 300 μl; Cy3-conjugated AffiniPure Goat Anti-Mouse IgG; Jackson ImmunoReserch Labs, USA; Product Code 115-165-062).
(§8) (8) Third Washing: The slides were washed twice with Wash Buffer (300 μl/partition).
(§9) (9) Rinse: the slides were rinsed twice with Rinse Buffer (PATHrinse, GenTel, Prod.No. 2-1018) then dried well.
(§10) (10) Scanning: The peptide-bound, labeled slide was scanned (Laser Intensity 80%, Gain 80%, Resolution 10 μm) with a ScanArray Life Scanner (Packard BioChip Technologies, USA).
(§11) (11) Analysis: Quantitative analysis of micro-array was performed by the SpotReader program of Niles Scientific (USA) and presented as Relative Fluorescence (RF) as a function of CK concentration. Micro-array readout (Cy3 fluorescence) was quantified to determine the relative binding affinities of a CBP for the CKs and by inference, the specificity of the CBP for binding to a CK.

The test system of the next assay is IL-8. Put plainly: Micro-array analysis of chemokine binding peptides: IL-8. An outline of the steps: (§12)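 Chemokines printed at 25 and 50 μg/ml on protein microarray slides, blocked, then probed 1 h at RT with peptide-displaying recombinant phage (10^7 pfu/μl). Bound phage detected with mouse anti-M13 then Cy3 anti-mouse IgG. Cy3 fluorescence scanned, reported as relative fluorescence versus chemokine concentration.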
Chain of IL-8 (P10145 28-99 limits assumed): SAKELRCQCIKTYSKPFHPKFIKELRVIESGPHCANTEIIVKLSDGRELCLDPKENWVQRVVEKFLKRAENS

The target in another assay is T2, Mig (Homo sapiens, UniProt Q07325).
T2 construct: purchased 300-26
T2 sequence (Q07325 23-125): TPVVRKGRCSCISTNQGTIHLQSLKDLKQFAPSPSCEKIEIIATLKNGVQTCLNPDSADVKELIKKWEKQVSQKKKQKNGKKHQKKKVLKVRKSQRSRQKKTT
Put plainly: Micro-array analysis of chemokine binding peptides: Mig. An outline of the steps: as §12

The target in a further assay is T3, I-TAC (Homo sapiens, UniProt O14625).
T3 construct: purchased 300-46
T3 sequence (O14625 22-94): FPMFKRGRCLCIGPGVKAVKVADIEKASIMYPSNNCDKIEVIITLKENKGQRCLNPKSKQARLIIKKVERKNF
Put plainly: Micro-array analysis of chemokine binding peptides: I-TAC. An outline of the steps: as §12

In the next assay the target is T4, I-309 (Homo sapiens, UniProt P22362).
T4 construct: purchased 300-37
T4 sequence (P22362 24-96): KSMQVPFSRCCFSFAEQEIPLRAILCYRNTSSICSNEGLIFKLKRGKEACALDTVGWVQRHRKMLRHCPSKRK
Put plainly: Micro-array analysis of chemokine binding peptides: I-309. The method, boiled down: as §12

For a further assay, the target named is T5, MCP-1 (Homo sapiens, UniProt P13500).
T5 construct: purchased 300-04
T5 sequence (P13500 24-99): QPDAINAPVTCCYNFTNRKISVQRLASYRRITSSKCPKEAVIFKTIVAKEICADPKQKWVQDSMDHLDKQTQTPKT
Put plainly: Micro-array analysis of chemokine binding peptides: MCP-1. The protocol: as §1, §2, §3, §4, §5, §6, §7, §8, §9, §10, §11

A further assay concerns the target T6, MCP-2 (Homo sapiens, UniProt P80075).
T6 construct: purchased 300-15
T6 sequence (P80075 24-99): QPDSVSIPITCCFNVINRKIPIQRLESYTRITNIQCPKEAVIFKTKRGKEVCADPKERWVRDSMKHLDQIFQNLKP
As to the kind of experiment: Micro-array analysis of chemokine binding peptides: MCP-2. The method, boiled down:
as §12

A further assay addresses T7, MCP-4 (Homo sapiens, UniProt Q99616).
T7 construct: purchased 300-24
As to the kind of experiment: Micro-array analysis of chemokine binding peptides: MCP-4. The note with it: limit = start of the upper 75% of that peptide's response range. An outline of the steps:
as §12

Another assay has as its target T8, RANTES (Homo sapiens, UniProt P13501).
T8 construct: purchased 300-06
T8 sequence (P13501 24-91): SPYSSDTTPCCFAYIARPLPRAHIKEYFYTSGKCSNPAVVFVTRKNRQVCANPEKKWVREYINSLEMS
Put plainly: Micro-array analysis of chemokine binding peptides: RANTES. The note with it: limit = start of the upper 75% of that peptide's response range. The method, boiled down: as §12

A further assay deals with T9, Eotaxin (Homo sapiens, UniProt P51671).
T9 construct: purchased 300-21
T9 sequence (P51671 24-97): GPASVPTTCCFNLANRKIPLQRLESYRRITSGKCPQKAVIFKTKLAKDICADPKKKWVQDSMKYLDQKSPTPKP
As to the kind of experiment: Micro-array analysis of chemokine binding peptides: Eotaxin. An outline of the steps: as §12

The target in a further assay is T10, Eotaxin 2 (Homo sapiens, UniProt O00175).
T10 construct: purchased 300-33
T10 sequence (O00175 27-119): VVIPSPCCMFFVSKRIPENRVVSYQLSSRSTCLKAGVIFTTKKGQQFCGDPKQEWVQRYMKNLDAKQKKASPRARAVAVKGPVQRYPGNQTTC
Put plainly: Micro-array analysis of chemokine binding peptides: Eotaxin 2. The procedure: as §1, §2, §3, §4, §5, §6, §7, §8, §9, §10, §11

A further assay concerns the target T11, Eotaxin 3 (Homo sapiens, UniProt Q9Y258).
T11 construct: purchased 300-48
T11 sequence (Q9Y258 24-94): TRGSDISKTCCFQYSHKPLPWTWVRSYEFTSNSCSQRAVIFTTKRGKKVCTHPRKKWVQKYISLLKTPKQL
As to the kind of experiment: Micro-array analysis of chemokine binding peptides: Eotaxin 3. The method, boiled down: as §12

The next assay concerns the target T12, BCA-1 (Homo sapiens, UniProt O43927).
T12 construct: purchased 300-47
T12 sequence (O43927 23-109): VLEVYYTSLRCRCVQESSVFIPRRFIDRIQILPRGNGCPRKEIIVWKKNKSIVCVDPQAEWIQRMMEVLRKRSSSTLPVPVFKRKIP
As to the kind of experiment: Micro-array analysis of chemokine binding peptides: BCA-1. The method, boiled down: as §12

In another assay the target is T13, TECK (Homo sapiens, UniProt O15444).
T13 construct: purchased 300-45
T13 sequence (O15444 24-150): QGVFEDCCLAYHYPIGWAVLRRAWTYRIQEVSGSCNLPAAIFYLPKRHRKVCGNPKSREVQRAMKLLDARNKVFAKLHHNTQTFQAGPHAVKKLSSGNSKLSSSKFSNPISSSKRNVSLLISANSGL
As to the kind of experiment: Micro-array analysis of chemokine binding peptides: TECK. An outline of the steps: as §12

In the next assay the target is T14, Fractalkine (Homo sapiens, UniProt P78423).
T14 construct: purchased 300-31
T14 sequence (P78423 25-100 limits assumed): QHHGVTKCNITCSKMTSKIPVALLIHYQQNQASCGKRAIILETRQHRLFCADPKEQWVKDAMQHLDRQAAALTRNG
Put plainly: Micro-array analysis of chemokine binding peptides: Fractalkine. The method, boiled down:
as §12

The next assay deals with T15, Lymphotactin (Homo sapiens, UniProt P47992).
T15 construct: purchased 300-20
T15 sequence (P47992 22-114): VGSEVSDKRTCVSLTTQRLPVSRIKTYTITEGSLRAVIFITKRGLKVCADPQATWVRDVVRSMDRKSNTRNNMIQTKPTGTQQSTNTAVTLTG
Put plainly: Micro-array analysis of chemokine binding peptides: Lymphotactin. An outline of the steps: as §12

A further assay addresses T16, MDC 69 (Homo sapiens, UniProt O00626).
T16 construct: MDC(69aa), (CCL22 cat.no.300-36A); purchased 300-36A
T16 sequence (O00626 25-93): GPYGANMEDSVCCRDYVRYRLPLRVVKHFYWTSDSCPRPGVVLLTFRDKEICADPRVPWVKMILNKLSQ
Put plainly: Micro-array analysis of chemokine binding peptides: MDC 69. The protocol: as §1, §2, §3, §4
(5) Primary Antibody (Ab) Labeling: The slides were incubated with the Primary Ab (1 mg/ml diluted ×2500 (Wash Reagent), 300 μl; Mouse Anti-M13 monoclonal Ab; Amersham Biosciences, UK; Product Code 27-9420-01) for 45 minutes at RT. […]
as §11

T7 sequence (Q99616 17-98): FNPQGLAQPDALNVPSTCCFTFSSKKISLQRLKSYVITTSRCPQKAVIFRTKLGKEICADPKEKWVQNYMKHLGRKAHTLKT

As for HHTCSLHFP [Ph-p16], the “binding to GRO-β, stated in words” value with GRO-β is listed as “bound”. Besides, the “binding to IL-8, stated in words” value in the assay with IL-8 is recorded as “bound”. Moreover, the “binding to Mig, stated in words” value in the assay with Mig is “bound”. The “binding to I-TAC, stated in words” value in the assay with I-TAC is on record as “bound”. The “binding to I-309, stated in words” value in the assay with I-309 is “bound”. For the same sequence, the “binding to MCP-1, stated in words” value with MCP-1 is “bound”. Also, in the assay with MCP-2, the “binding to MCP-2, stated in words” value is listed as “bound”. Moreover, the “binding to MCP-4 with relatively high affinity (Relative Fluorescence Units)” value in the assay with MCP-4 was > 15,000 RFU. Besides, the “binding to RANTES with relatively high affinity (Relative Fluorescence Units)” value with RANTES was > 15,000 RFU. Moreover, the “binding to Eotaxin, stated in words” value with Eotaxin is reported as “bound”. In addition, the “binding to Eotaxin 2, stated in words” value with Eotaxin 2 is given as “bound”. Further, the “binding to Eotaxin 3, stated in words” value in the assay with Eotaxin 3 is reported as “bound”. Moreover, the “binding to BCA-1, stated in words” value with BCA-1 is “bound”. Moreover, the “binding to TECK, stated in words” value with TECK is listed as “bound”. Further, the “binding to Fractalkine, stated in words” value with Fractalkine is “bound”. The “binding to Lymphotactin, stated in words” value with Lymphotactin is listed as “bound”. Moreover, the “binding to MDC 69, stated in words” value with MDC 69 is “bound”.
